Assays:
[1] = target: human CD33 P48N (human) (UniProt P20138); assay: flow cytometry on transfected cells, IgG
[2] = target: human CD33 F44Q (human) (UniProt P20138); assay: flow cytometry on transfected cells, IgG
[3] = target: human CD33 F43L (human) (UniProt P20138); assay: flow cytometry on transfected cells, IgG
[4] = target: human CD33 Y50H (human) (UniProt P20138); assay: flow cytometry on transfected cells, IgG
[5] = target: human CD33 P48D (human) (UniProt P20138); assay: flow cytometry on transfected cells, IgG
[6] = target: human CD33 Y49Q (human) (UniProt P20138); assay: flow cytometry on transfected cells, IgG
[7] = target: human CD33 Y50P (human) (UniProt P20138); assay: flow cytometry on transfected cells, IgG
[8] = target: human CD33 P48M (human) (UniProt P20138); assay: flow cytometry on transfected cells, IgG
[9] = target: human CD33 F44D (human) (UniProt P20138); assay: flow cytometry on transfected cells, IgG
[10] = target: human CD33 I47G (human) (UniProt P20138); assay: flow cytometry on transfected cells, IgG
[11] = target: human CD33 P46R (human) (UniProt P20138); assay: flow cytometry on transfected cells, IgG
[12] = target: human CD33 Y49P (human) (UniProt P20138); assay: flow cytometry on transfected cells, IgG
[13] = target: human CD33 P48F (human) (UniProt P20138); assay: flow cytometry on transfected cells, IgG
[14] = target: human CD33 Y50L (human) (UniProt P20138); assay: flow cytometry on transfected cells, IgG
[15] = target: human CD33 P48T (human) (UniProt P20138); assay: flow cytometry on transfected cells, IgG
[16] = target: human CD33 F43V (human) (UniProt P20138); assay: flow cytometry on transfected cells, IgG
[17] = target: human CD33 F44P (human) (UniProt P20138); assay: flow cytometry on transfected cells, IgG
[18] = target: human CD33 F44H (human) (UniProt P20138); assay: flow cytometry on transfected cells, IgG
[19] = target: human CD33 T331A (human) (UniProt P20138); assay: flow cytometry, HEK293-T, alanine scan
[20] = target: human CD33 L271A (human) (UniProt P20138); assay: flow cytometry, HEK293-T, alanine scan
[21] = target: human CD33 H317A (human) (UniProt P20138); assay: flow cytometry, HEK293-T, alanine scan
[22] = target: human CD33 R296A (human) (UniProt P20138); assay: flow cytometry, HEK293-T, alanine scan
[23] = target: human CD33 C325A (human) (UniProt P20138); assay: flow cytometry, HEK293-T, alanine scan
[24] = target: human CD33 F280A (human) (UniProt P20138); assay: flow cytometry, HEK293-T, alanine scan
[25] = target: human CD33 L277A (human) (UniProt P20138); assay: flow cytometry, HEK293-T, alanine scan
[26] = target: human CD33 L338A (human) (UniProt P20138); assay: flow cytometry, HEK293-T, alanine scan
[27] = target: human CD33 M334A (human) (UniProt P20138); assay: flow cytometry, HEK293-T, alanine scan
[28] = target: human CD33 S307A (human) (UniProt P20138); assay: flow cytometry, HEK293-T, alanine scan
[29] = target: human CD33 A328S (human) (UniProt P20138); assay: flow cytometry, HEK293-T, alanine scan
[30] = target: human CD33 T303A (human) (UniProt P20138); assay: flow cytometry, HEK293-T, alanine scan
[31] = target: human CD33 A290S (human) (UniProt P20138); assay: flow cytometry, HEK293-T, alanine scan
[32] = target: human CD33 V332A (human) (UniProt P20138); assay: flow cytometry, HEK293-T, alanine scan
[33] = target: human CD33 L316A (human) (UniProt P20138); assay: flow cytometry, HEK293-T, alanine scan
[34] = target: human CD33 S314A (human) (UniProt P20138); assay: flow cytometry, HEK293-T, alanine scan
[35] = target: human CD33 K313A (human) (UniProt P20138); assay: flow cytometry, HEK293-T, alanine scan
[36] = target: human CD33 T292A (human) (UniProt P20138); assay: flow cytometry, HEK293-T, alanine scan
[37] = target: human CD33 N344A (human) (UniProt P20138); assay: flow cytometry, HEK293-T, alanine scan
[38] = target: human CD33 C274A (human) (UniProt P20138); assay: flow cytometry, HEK293-T, alanine scan
[39] = target: human CD33 R287A (human) (UniProt P20138); assay: flow cytometry, HEK293-T, alanine scan
[40] = target: human CD33 C276A (human) (UniProt P20138); assay: flow cytometry, HEK293-T, alanine scan
[41] = target: human CD33 K288A (human) (UniProt P20138); assay: flow cytometry, HEK293-T, alanine scan
[42] = target: human CD33 A289S (human) (UniProt P20138); assay: flow cytometry, HEK293-T, alanine scan
[43] = target: human CD33 V294A (human) (UniProt P20138); assay: flow cytometry, HEK293-T, alanine scan
[44] = target: human CD33 A272S (human) (UniProt P20138); assay: flow cytometry, HEK293-T, alanine scan
[45] = target: human CD33 D298A (human) (UniProt P20138); assay: flow cytometry, HEK293-T, alanine scan
[46] = target: human CD33 K283A (human) (UniProt P20138); assay: flow cytometry, HEK293-T, alanine scan
Sequence of human CD33 K283A (human) (P20138 18-364 K283A limits assumed): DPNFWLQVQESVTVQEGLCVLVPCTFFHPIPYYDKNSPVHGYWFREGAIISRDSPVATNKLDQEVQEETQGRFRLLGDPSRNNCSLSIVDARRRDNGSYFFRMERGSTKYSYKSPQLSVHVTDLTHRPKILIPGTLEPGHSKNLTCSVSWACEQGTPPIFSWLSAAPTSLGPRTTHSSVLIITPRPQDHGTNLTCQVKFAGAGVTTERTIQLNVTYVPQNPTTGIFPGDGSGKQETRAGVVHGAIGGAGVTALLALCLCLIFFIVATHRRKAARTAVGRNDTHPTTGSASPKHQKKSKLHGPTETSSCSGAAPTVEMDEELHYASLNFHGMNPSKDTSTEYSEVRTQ

Sequence of human CD33 S307A (human) (P20138 18-364 S307A limits assumed): as the sequence (P20138 18-364 K283A limits assumed) above, with A266K, S290A counted along it
Sequence of human CD33 C274A (human) (P20138 18-364 C274A limits assumed): as the sequence (P20138 18-364 K283A limits assumed) above, with C257A, A266K counted along it
Sequence of human CD33 R296A (human) (P20138 18-364 R296A limits assumed): as the sequence (P20138 18-364 K283A limits assumed) above, with A266K, R279A counted along it
Sequence of human CD33 L277A (human) (P20138 18-364 L277A limits assumed): as the sequence (P20138 18-364 K283A limits assumed) above, with L260A, A266K counted along it
Sequence of human CD33 T303A (human) (P20138 18-364 T303A limits assumed): as the sequence (P20138 18-364 K283A limits assumed) above, with A266K, T286A counted along it
Sequence of human CD33 T331A (human) (P20138 18-364 T331A limits assumed): as the sequence (P20138 18-364 K283A limits assumed) above, with A266K, T314A counted along it
Sequence of human CD33 D298A (human) (P20138 18-364 D298A limits assumed): as the sequence (P20138 18-364 K283A limits assumed) above, with A266K, D281A counted along it
Sequence of human CD33 A272S (human) (P20138 18-364 A272S limits assumed): as the sequence (P20138 18-364 K283A limits assumed) above, with A255S, A266K counted along it
Sequence of human CD33 S314A (human) (P20138 18-364 S314A limits assumed): as the sequence (P20138 18-364 K283A limits assumed) above, with A266K, S297A counted along it
Sequence of human CD33 C276A (human) (P20138 18-364 C276A limits assumed): as the sequence (P20138 18-364 K283A limits assumed) above, with C259A, A266K counted along it
Sequence of human CD33 F44H (human) (P20138 18-364 F44H limits assumed): as the sequence (P20138 18-364 K283A limits assumed) above, with F27H, A266K counted along it
Sequence of human CD33 Y49P (human) (P20138 18-364 Y49P limits assumed): as the sequence (P20138 18-364 K283A limits assumed) above, with Y32P, A266K counted along it
Sequence of human CD33 H317A (human) (P20138 18-364 H317A limits assumed): as the sequence (P20138 18-364 K283A limits assumed) above, with A266K, H300A counted along it

Refmab #7 (WM53) (antibody) showed a Mean % WT Binding [1] of 4.3 % WT binding, a Mean % WT Binding [2] of 74.8 % WT binding and a Mean % WT Binding [3] of 94 % WT binding. The Mean % WT Binding [4] was 18 % WT binding, the Mean % WT Binding [5] was 0.1 % WT binding and the Mean % WT Binding [6] was 0.7 % WT binding. The Mean % WT Binding [7] was 0.4 % WT binding, the Mean % WT Binding [8] was 3.2 % WT binding and the Mean % WT Binding [9] was 9.5 % WT binding. The Mean % WT Binding [10] was 15.1 % WT binding, the Mean % WT Binding [11] was 33.4 % WT binding and the Mean % WT Binding [12] was 11.7 % WT binding. The Mean % WT Binding [13] was 0.2 % WT binding, the Mean % WT Binding [14] was 4.7 % WT binding and the Mean % WT Binding [15] was 1.6 % WT binding. The Mean % WT Binding [16] was 73.4 % WT binding, the Mean % WT Binding [17] was 21.8 % WT binding and the Mean % WT Binding [18] was 82.4 % WT binding. For the same substance, the Mean % WT Binding [19] was 108 % WT binding, the Mean % WT Binding [20] was 113 % WT binding and the Mean % WT Binding [21] was 112 % WT binding. It also gave a Mean % WT Binding [22] of 93.6 % WT binding, a Mean % WT Binding [23] of 101 % WT binding and a Mean % WT Binding [24] of 104 % WT binding. For the same substance, the Mean % WT Binding [25] was 92 % WT binding, the Mean % WT Binding [26] was 124 % WT binding and the Mean % WT Binding [27] was 93.9 % WT binding. It also gave a Mean % WT Binding [28] of 91.7 % WT binding, a Mean % WT Binding [29] of 119 % WT binding and a Mean % WT Binding [30] of 77.1 % WT binding. For the same substance, the Mean % WT Binding [31] was 98 % WT binding, the Mean % WT Binding [32] was 112 % WT binding and the Mean % WT Binding [33] was 103 % WT binding. It also gave a Mean % WT Binding [34] of 107 % WT binding, a Mean % WT Binding [35] of 108 % WT binding and a Mean % WT Binding [36] of 119 % WT binding. For the same substance, the Mean % WT Binding [37] was 108 % WT binding, the Mean % WT Binding [38] was 102 % WT binding and the Mean % WT Binding [39] was 91.1 % WT binding. The Mean % WT Binding [40] was 110 % WT binding, the Mean % WT Binding [41] was 128 % WT binding and the Mean % WT Binding [42] was 107 % WT binding. For the same substance, the Mean % WT Binding [43] was 126 % WT binding, the Mean % WT Binding [44] was 113 % WT binding and the Mean % WT Binding [45] was 86.5 % WT binding. It also gave a Mean % WT Binding [46] of 117 % WT binding.
